B1: HDV Ribozyme (parent)
chain: GGCCGGCAUGGUCCCAGCCUCCUCGCUGGCGCCGGCUGGGCAACAUUCCGAGGGGACCGUCCCCUCGGUAAUGGCGAAUGGGACCCA

The results in this text go back to the RNAGym collection of RNA variant scans (doi:10.7554/elife.80360).

Variants of B1 are the subject of the data set. In words: self-cleavage, relative activity (ratio to wild type); higher = more cleavage; co-transcriptional.
In the case of C30U C66A, the self-cleavage stood at 0.684.

As for A45U C57A, the self-cleavage was 0.906.

Turning to G31C A83C, the self-cleavage came out at 0.185.

For U37A C57A, the self-cleavage came to 0.212.

On to C33A U37A, for which the self-cleavage is 0.151.

Turning to U20G A70G, the self-cleavage came to 0.312.

For C30G C41U, the self-cleavage was 0.0702.

Regarding C30U G55A, the self-cleavage amounted to 0.691.

For the variant U27C G40A, the self-cleavage stood at 0.657.

Take U37A A71C: the self-cleavage came out at 0.19.

Regarding C30A A78G, the self-cleavage was found to be 0.309.

Consider G35C G54C, for which the self-cleavage worked out at 0.17.

Regarding G68U U79A, the self-cleavage was 0.928.

In the case of G29C U60A, the self-cleavage stood at 0.0426.

For U12A C41G, the self-cleavage was found to be 0.138.

On to C4G C7G, for which the self-cleavage is 0.0875.

Consider U12G A83G, for which the self-cleavage turned out to be 0.89.

For C15A A45C, the self-cleavage was found to be 0.151.

For the variant A8G C22U, the self-cleavage came to 0.361.

As for U47A U69A, the self-cleavage is 1.02.

In the case of C18A G54C, the self-cleavage came to 0.189.

On to C30G C33U, for which the self-cleavage is 0.

Regarding U20A U46A, the self-cleavage stood at 0.0594.

For C19A C57U, the self-cleavage came out at 0.155.

In the case of C30A A77C, the self-cleavage was found to be 0.0852.

Turning to C7G C30A, the self-cleavage stood at 0.0361.

In the case of C33G U47G, the self-cleavage was found to be 0.0723.

On to C21G G39C, for which the self-cleavage turned out to be 0.554.

For the variant U20A C61A, the self-cleavage is 0.111.

On to G59A G73U, for which the self-cleavage came to 0.267.

For C26G, the self-cleavage came to 0.952.

As to G17A C36G, the self-cleavage was 0.0475.

On to G1A A77C, for which the self-cleavage was determined as 0.0405.

On to C33U C75U, for which the self-cleavage came to 0.0817.

On to C33U C75G, for which the self-cleavage turned out to be 0.222.

Regarding G40U C63U, the self-cleavage worked out at 0.866.

With C19G C26A, the self-cleavage is 0.104.

U9A G74A: the self-cleavage worked out at 0.491.

Consider C75G C84G, for which the self-cleavage worked out at 0.282.

On to G28C C58G, for which the self-cleavage worked out at 0.0475.

Turning to G28A C30U, the self-cleavage was found to be 0.113.

U12G G53C: the self-cleavage turned out to be 0.831.

Regarding C21U G80A, the self-cleavage stood at 0.185.

For U37A U72A, the self-cleavage was found to be 0.125.

On to U12G A16G, for which the self-cleavage is 1.06.

As for C26U G28A, the self-cleavage was found to be 0.234.

On to G29U C85G, for which the self-cleavage was determined as 0.

As to G55A U60C, the self-cleavage was 0.9.

For the variant C3U A83U, the self-cleavage stood at 0.17.

As to C57A C61G, the self-cleavage was 1.05.

Take C22G G80A: the self-cleavage is 0.135.

On to U72C G73A, for which the self-cleavage stood at 0.407.

C18G G35C: the self-cleavage was 0.104.

On to C19G G35A, for which the self-cleavage came to 0.0297.

As to C3G C75A, the self-cleavage was 0.119.

For G74A G82A, the self-cleavage came to 0.0656.

On to G53C A71G, for which the self-cleavage came out at 1.07.

Consider C22A G50A, for which the self-cleavage was found to be 0.235.

As for C22U G81A, the self-cleavage worked out at 0.0911.

Consider G6C C85G, for which the self-cleavage was 0.375.

For the variant C61U G82U, the self-cleavage turned out to be 0.518.

Turning to G2C G11U, the self-cleavage came to 0.0519.

Turning to G2A U65C, the self-cleavage amounted to 0.117.

As to G2C G76U, the self-cleavage was 0.0455.

As for A16G C57G, the self-cleavage amounted to 1.2.

As to C3G G74A, the self-cleavage is 0.114.

For C66A A77C, the self-cleavage is 0.237.

Turning to G52C U79G, the self-cleavage is 0.475.

On to G6C A77C, for which the self-cleavage was 0.277.

Consider C32U C58U, for which the self-cleavage turned out to be 0.831.

For C24G U60A, the self-cleavage was determined as 0.264.

Consider U47C G76A, for which the self-cleavage worked out at 0.787.

With C24A G68U, the self-cleavage was found to be 0.776.

With G31A G80U, the self-cleavage came out at 0.104.

For the variant A42U U60C, the self-cleavage amounted to 0.554.

G11C U72G: the self-cleavage was determined as 0.

Regarding G38U C86A, the self-cleavage is 0.297.

In the case of C30A C41U, the self-cleavage worked out at 0.328.

Regarding C21A C41U, the self-cleavage is 0.181.

For the variant G17A C22U, the self-cleavage worked out at 0.194.

With U72A U79G, the self-cleavage turned out to be 0.361.

Turning to G35A A71G, the self-cleavage was 0.464.

On to C19U A70C, for which the self-cleavage was 0.0906.

In the case of U9A C14A, the self-cleavage came to 0.65.

In the case of G10U U79G, the self-cleavage stood at 0.38.

Turning to G6A C84A, the self-cleavage worked out at 0.431.

Take G2A C24G: the self-cleavage was 0.0378.

As for G52C U60A, the self-cleavage came out at 1.02.

Regarding A16C G53U, the self-cleavage was 0.755.

As to G80C A83U, the self-cleavage came to 0.164.

For G28U G81U, the self-cleavage amounted to 0.202.

For C4G G38C, the self-cleavage is 0.

In the case of G59C G67A, the self-cleavage was 1.06.

Take A16U U69A: the self-cleavage was 0.911.

A16G C30G: the self-cleavage amounted to 0.122.

With C7G G29C, the self-cleavage worked out at 0.0615.

Turning to G29A C66A, the self-cleavage was determined as 0.191.

Turning to C15A C57G, the self-cleavage was found to be 0.623.

For the variant G1C G6C, the self-cleavage was 0.

Turning to A8G G17U, the self-cleavage is 0.554.

Consider C26G G34A, for which the self-cleavage is 0.54.

G5C G25U: the self-cleavage amounted to 0.0475.

For G10A C18A, the self-cleavage was 0.0567.

Turning to G1C C30U, the self-cleavage worked out at 0.0755.

U46A G81U: the self-cleavage worked out at 0.271.

For G39A C75U, the self-cleavage was determined as 0.178.

On to C64G G76A, for which the self-cleavage worked out at 0.862.

Consider G40C C61G, for which the self-cleavage came out at 0.241.

In the case of C15A G67A, the self-cleavage is 0.499.

For the variant C48A G68U, the self-cleavage was 1.1.

In the case of G2C C3G, the self-cleavage stood at 0.

For G1C A43G, the self-cleavage was 0.

Regarding U47C G53C, the self-cleavage stood at 0.653.

For the variant A8C G82U, the self-cleavage is 0.116.

G34A G59A: the self-cleavage is 0.214.

G54U C66U: the self-cleavage turned out to be 0.914.

With G17U C61U, the self-cleavage turned out to be 0.471.

Turning to C14U C85U, the self-cleavage came to 0.831.

Take A56C A87U: the self-cleavage amounted to 0.986.

For G6C U27A, the self-cleavage was 0.332.

With C15A C21A, the self-cleavage was determined as 0.

G28A C44G: the self-cleavage was 0.

Take G2A G10A: the self-cleavage turned out to be 0.0256.

As to A8C G11U, the self-cleavage was found to be 0.17.

As to G25U G38A, the self-cleavage turned out to be 0.0511.

Turning to C36G G82A, the self-cleavage was determined as 0.07.

For the variant U23C A71G, the self-cleavage turned out to be 0.9.

As to C13G C14G, the self-cleavage came out at 0.166.

As for C13U C18U, the self-cleavage stood at 0.295.

G5U A70G: the self-cleavage came out at 0.375.

In the case of C24G G25C, the self-cleavage came out at 0.145.

Consider G31A G68U, for which the self-cleavage turned out to be 0.463.

As for C41A G54C, the self-cleavage came to 1.08.

G31C A78C: the self-cleavage worked out at 0.0997.

C33U A83U: the self-cleavage was found to be 0.415.

As for G28C G67A, the self-cleavage is 0.0707.

Consider G67U G74U, for which the self-cleavage stood at 0.453.

In the case of A56U G76U, the self-cleavage worked out at 0.95.

Take U46C U47A: the self-cleavage is 1.08.

In the case of U23C G73C, the self-cleavage is 0.269.

Take C26A G28C: the self-cleavage came out at 0.0791.

Consider C58U A87U, for which the self-cleavage came to 0.915.

As for G10C G73U, the self-cleavage was 0.177.

As to G6U C48U, the self-cleavage is 0.696.

Turning to U9G A71G, the self-cleavage came out at 0.831.

As for C13G C36G, the self-cleavage came to 0.158.

For the variant C13U C48U, the self-cleavage stood at 0.642.

For the variant G1C G40C, the self-cleavage was found to be 0.0475.

Turning to G25C A87C, the self-cleavage was determined as 0.07.

As to G55A C64U, the self-cleavage is 1.04.

In the case of U9A U60G, the self-cleavage was determined as 0.9.

Take G2U C18U: the self-cleavage came to 0.0755.

Consider C21G G80C, for which the self-cleavage came to 0.177.

For the variant G5A G10U, the self-cleavage worked out at 0.188.

Consider G34A C57U, for which the self-cleavage stood at 0.332.

U12A U65C: the self-cleavage turned out to be 0.506.

In the case of G53U A71U, the self-cleavage was determined as 0.92.

Take U9C A77G: the self-cleavage is 1.05.

In the case of G67C A71G, the self-cleavage stood at 0.743.

As to G31U U47G, the self-cleavage came out at 0.32.

With C15G G35U, the self-cleavage stood at 0.0396.

As for A43G U46C, the self-cleavage was 0.443.

For C15U G68A, the self-cleavage was 0.759.

As to G17U G53U, the self-cleavage was found to be 0.42.

Turning to C21G A83G, the self-cleavage worked out at 0.0987.

As to C18A G53U, the self-cleavage turned out to be 0.117.

With U9C G74U, the self-cleavage stood at 0.467.
